Where two headings read alike, the source gives them in different places.
Assays:
hFc-human LIGHT [1] = molecular target: T1, hFc-human LIGHT (human); test: competition ELISA, LTβR-His coated, hFc-huLIGHT added
T1 construct: also called hFc-huLIGHT

His-human LIGHT [2] = molecular target: T2, His-human LIGHT (human); test: ELISA, His-huLIGHT coated
T2 construct: also called His-huLIGHT; free LIGHT
T2 chain: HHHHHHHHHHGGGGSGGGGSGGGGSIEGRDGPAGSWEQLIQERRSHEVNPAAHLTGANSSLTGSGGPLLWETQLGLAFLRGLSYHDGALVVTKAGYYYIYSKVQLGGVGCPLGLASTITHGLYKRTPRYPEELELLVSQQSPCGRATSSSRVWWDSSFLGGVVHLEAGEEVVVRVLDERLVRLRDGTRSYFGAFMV

His-human LIGHT [3] = molecular target: T2, His-human LIGHT; test: cell-based or functional assay
His-human LIGHT [4] = molecular target: T2, His-human LIGHT; test: cell-based or functional assay
His-human LIGHT [5] = molecular target: T2, His-human LIGHT; test: cell-based or functional assay
[6] = molecular target: T3, LIGHT on the surface of HEK293-LIGHT stable cells (human, UniProt O43557 1-240); test: cell-based or functional assay
[7] = molecular target: T4, His-cynomolgus monkey LIGHT (cynomolgus monkey); test: ELISA, His-cynoLIGHT coated
T4 construct: also called His-cynoLIGHT
T4 chain: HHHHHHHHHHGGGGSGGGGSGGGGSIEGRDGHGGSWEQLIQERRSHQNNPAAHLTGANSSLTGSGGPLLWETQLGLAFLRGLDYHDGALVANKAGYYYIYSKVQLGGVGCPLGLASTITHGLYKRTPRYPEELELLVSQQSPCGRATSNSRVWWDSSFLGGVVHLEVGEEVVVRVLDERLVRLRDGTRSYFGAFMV

His-human LIGHT [8] = molecular target: T2, His-human LIGHT; test: cell-based or functional assay
His-human LIGHT [9] = molecular target: T2, His-human LIGHT; test: cell-based or functional assay
His-human LIGHT [10] = molecular target: T2, His-human LIGHT; test: ELISA, His-huLIGHT coated
His-human LIGHT [11] = molecular target: T2, His-human LIGHT; test: cell-based or functional assay
hFc-human LIGHT [12] = molecular target: T1, hFc-human LIGHT; test: competition ELISA, LTβR-His coated, hFc-huLIGHT added; remark: listed apart in the source
[13] = molecular target: T3, LIGHT on the surface of HEK293-LIGHT …; test: cell-based or functional assay; remark: listed apart in the source
His-mouse LIGHT = molecular target: T5, His-mouse LIGHT (mouse); test: ELISA, His-musLIGHT coated
T5 construct: also called His-musLIGHT
T5 chain: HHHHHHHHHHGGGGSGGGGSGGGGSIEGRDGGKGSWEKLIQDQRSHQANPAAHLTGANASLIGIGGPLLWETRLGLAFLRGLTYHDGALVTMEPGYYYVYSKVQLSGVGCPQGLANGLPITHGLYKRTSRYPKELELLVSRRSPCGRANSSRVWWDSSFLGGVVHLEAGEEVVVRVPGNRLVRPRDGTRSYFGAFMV

[14] = molecular target: T4, His-cynomolgus monkey LIGHT; test: ELISA, His-cynoLIGHT coated
His-human LIGHT [15] = molecular target: T2, His-human LIGHT; test: cell-based or functional assay
His-human LIGHT [16] = molecular target: T2, His-human LIGHT; test: cell-based or functional assay
[17] = molecular target: T3, LIGHT on the surface of HEK293-LIGHT …; test: cell-based or functional assay; remark: listed apart in the source
His-human LIGHT [18] = molecular target: T2, His-human LIGHT; test: ELISA, His-huLIGHT coated
[19] = molecular target: T4, His-cynomolgus monkey LIGHT; test: ELISA, His-cynoLIGHT coated
hFc-human LIGHT [20] = molecular target: T1, hFc-human LIGHT; test: competition ELISA, LTβR-His coated, hFc-huLIGHT added; remark: listed apart in the source

IC50 (hFc-human LIGHT [1]) [nM] | EC50 (His-human LIGHT [2]) [nM] | IC50, LIGHT induced MMP-9 production in BEAS-2B bronchial epithelial cells (His-human LIGHT [3]) [µg/mL] | IC50, proliferation of CD3+ T cells stimulated by plate-bound anti-CD3 and His-huLIGHT (CellTiter Glo) (His-human LIGHT [4]) [µg/mL] | IC50, LTβR NF-κB luciferase reporter, free LIGHT (His-human LIGHT [5]) [nM] | IC50, LTβR NF-κB luciferase reporter, HEK293-LIGHT cells [6] [nM] | EC50 [7] [nM] | binding result (His-mouse LIGHT) | IC50, LTβR NF-κB luciferase reporter, free LIGHT (His-human LIGHT [15]) [nM] | IC50, HVEM NF-κB luciferase reporter, free LIGHT (His-human LIGHT [16]) [nM] | IC50, LTβR NF-κB luciferase reporter, HEK293-LIGHT cells [17] [nM] | EC50 (His-human LIGHT [18]) [nM] | EC50 [19] [nM] | IC50 (hFc-human LIGHT [20]) [nM] | further results | Binder
0.867 | 0.0422 | 0.358 | 0.311 | 0.227 | 0.867 | 0.104 |  |  |  |  |  |  |  |  | hum_LT-m37-13 (antibody, human IgG4, V domains shown, humanized from LT-m37) VH: QVQLVQSGAEVKKPGASVKVSCKASGYSFTGYFINWVRQAPGQGLEWIGRIYPYNVDTFYNQNFKGRVTMTADKSTSTAYMELSSLRSEDTAVYYCGRGTHYYGSSGAMDYWGQGTLVTVSS VL: EIVLTQSPATLSVSPGERATLSCKASQNVGTAVAWYQQKPGQSPRLLIYSASNRYTGIPARFSGSGSGTEFTLTISSLQSEDFAVYFCQQYSSYPYTFGGGTKVEIK
1.02 | 0.0464 | 0.352 | 0.332 | 0.182 | 1.86 | 0.104 |  |  |  |  |  |  |  | IC50, HVEM NF-κB luciferase reporter, free LIGHT (His-human LIGHT [8]): 0.161 nM | hum_LT-m37-14 (antibody, human IgG4, V domains shown, humanized from LT-m37) VH: QVQLVQSGAEVKKPGASVKVSCKASGYSFTGYFINWVRQAPGQSLEWIGRIYPYNVDTFYNQNFKGRATLTADKSTSTAYMELSSLRSEDTAVYYCGRGTHYYGSSGAMDYWGQGTLVTVSS VL: EIVLTQSPATLSVSPGERATLSCKASQNVGTAVAWYQQKPGQSPRLLIYSASNRYTGIPARFSGSGSGTEFTLTISSLQSEDFAVYYCQQYSSYPYTFGGGTKVEIK
0.844 | 0.0658 | 0.197 | 0.195 | 0.219 | 1.28 | 0.13 |  |  |  |  |  |  |  | IC50, HVEM NF-κB luciferase reporter, free LIGHT (His-human LIGHT [8]): 0.12 nM | hum_LT-m37-15 (antibody, human IgG4, V domains shown, humanized from LT-m37) VH: QVQLVQSGAEVKKPGASVKVSCKASGYSFTGYFINWVRQAPGQGLEWIGRIYPYNVDTFYNQNFKGRATMTADKSTSTAYMELSSLRSEDTAVYYCGRGTHYYGSSGAMDYWGQGTLVTVSS VL: EIVLTQSPATLSVSPGERATLSCKASQNVGTAVAWYQQKPGQSPRLLIYSASNRYTGIPARFSGSGSGTEFTLTISSLQSEDFAVYYCQQYSSYPYTFGGGTKVEIK
0.808 | 0.0369 | 0.305 | 0.385 | 0.158 | 2.55 | 0.104 |  |  |  |  |  |  |  | IC50, HVEM NF-κB luciferase reporter, free LIGHT (His-human LIGHT [8]): 0.179 nM | hum_LT-m37-16 (antibody, human IgG4, V domains shown, humanized from LT-m37) VH: QVQLVQSGAEVKKPGASVKVSCKASGYSFTGYFINWVRQAPGQGLEWIGRIYPYNVDTFYNQNFKGRVTMTADKSTSTAYMELSSLRSEDTAVYYCGRGTHYYGSSGAMDYWGQGTLVTVSS VL: EIVLTQSPATLSVSPGERATLSCKASQNVGTAVAWYQQKPGQSPRLLIYSASNRYTGIPARFSGSGSGTEFTLTISSLQSEDFAVYYCQQYSSYPYTFGGGTKVEIK
 |  |  |  |  |  |  |  |  |  |  |  |  |  | IC50, LTβR NF-κB luciferase reporter, free LIGHT (His-human LIGHT [9]): 0.183 nM; EC50 (His-human LIGHT [10]): 0.0141 nM; IC50, HVEM NF-κB luciferase reporter, free LIGHT (His-human LIGHT [11]): 0.0933 nM; IC50 (hFc-human LIGHT [12]): 0.291 nM; IC50, LTβR NF-κB luciferase reporter, HEK293-LIGHT cells [13]: 8.06 nM | hum_LT-m58-1 (antibody, human IgG4, V domains shown, humanized from LT-m58) VH: QVQLVQSGAEVKKPGASVKVSCKASGYTFIDHIMNWVRKAPGQGLEWMGRIYPVSGETNYNQKFMGRATFTVDRSTSTVYMELSSLRSEDTAVYYCGRGSYYWNAMDYWGQGTLVTVSS VL: EIVMTQSPATLSVSPGERATLSCKASQSVDFDGDSYMNWYQQKPGQPPRLLIYSASNLESGIPARFSGSGSGTEFTLTISSLQSEDFAVYYCQQSIEDPWTFGQGTKLEIK
 |  |  |  |  |  |  |  |  |  |  |  |  |  | IC50, LTβR NF-κB luciferase reporter, free LIGHT (His-human LIGHT [9]): 0.135 nM; EC50 (His-human LIGHT [10]): 0.0154 nM; IC50, HVEM NF-κB luciferase reporter, free LIGHT (His-human LIGHT [11]): 0.199 nM; IC50 (hFc-human LIGHT [12]): 0.258 nM; IC50, LTβR NF-κB luciferase reporter, HEK293-LIGHT cells [13]: 5.91 nM | hum_LT-m58-2 (antibody, human IgG4, V domains shown, humanized from LT-m58) VH: QVQLVQSGAEVKKPGASVKVSCKASGYTFIDHIMNWVRKAPGQGLEWIGRIYPVSGETNYNQKFMGRVTFTVDRSTSTVYMELSSLRSEDTAVYYCGRGSYYWNAMDYWGQGTLVTVSS VL: EIVMTQSPATLSVSPGERATLSCKASQSVDFDGDSYMNWYQQKPGQAPRLLIYSASNLESGIPARFSGSGSGTEFTLTISSLQSEDFAVYYCQQSIEDPWTFGQGTKVEIK
 |  |  |  |  |  |  | no binding |  |  |  |  |  |  | EC50 (His-human LIGHT [10]): 0.0305 nM; IC50 (hFc-human LIGHT [12]): 0.746 nM; EC50 [14]: 4.43 pM | hum_LT-m58-5 (antibody, human IgG4, V domains shown, humanized from LT-m58) VH: QVQLVQSGAEVKKPGASVKVSCKASGYTFIDHIMNWVRKAPGQGLEWIGRIYPVSGETNYNQKFMGRVTFTVDRSTSTVYMELSSLRSEDTAVYYCGRGSYYWNAMDYWGQGTLVTVSS VL: EIVMTQSPATLSVSPGERATLSCKASQSVDFDGESYMNWYQQKPGQAPRLLIYSASNLESGIPARFSGSGSGTEFTLTISSLQSEDFAVYYCQQSIEDPWTFGQGTKVEIK
 |  |  |  |  |  |  | no binding | 0.159 | 0.564 | 4.68 | 0.00869 | 0.0155 | 0.282 |  | hum_LT-m85-3 (antibody, human IgG4, V domains shown, humanized from LT-m85) VH: QVQLVQSGAEVKKPGASVKVSCKASGYTFTSYNVHWVRQAPGQGLEWIGAVYPGNGDTSYNQKFKGRATLTADKSTSTVYMELSSLRSEDTAVYYCARGSYYYTSSYFDHWGQGTLVTVSS VL: EIVMTQSPATLSVSPGERATLSCKASQSVDFDGDSYMNWYQQKPGQPPRLLIYTASNLESGIPARFSGSGSGTEFTLTISSLQSEDFAVYYCQQSYEDPFTFGQGTKLEIK
 |  |  |  |  |  |  | no binding | 0.649 | 0.33 | 4.24 | 0.0123 | 0.0089 | 0.274 |  | hum_LT-m85-1 (antibody, human IgG4, V domains shown, humanized from LT-m85) VH: QVQLVQSGAEVKKPGASVKVSCKASGYTFTSYNVHWVRQAPGQGLEWIGAVYPGNGDTSYNQKFKGRATLTADKSTSTVYMELSSLRSEDTAVYYCARGSYYYTSSYFDHWGQGTLVTVSS VL: EIVLTQSPATLSVSPGERATLSCKASQSVDFDGDSYMNWYQQKPGQPPRLLIYTASNLESGIPARFSGSGSGTEFTLTISSLQSEDFAVYYCQQSYEDPFTFGQGTKLEIK
 |  |  |  |  |  |  | no binding | 0.0613 | 0.209 | 6.02 | 0.0131 | 0.0142 | 0.265 |  | hum_LT-m85-2 (antibody, human IgG4, V domains shown, humanized from LT-m85) VH: QVQLVQSGAEVKKPGASVKVSCKASGYTFTSYNVHWVRQAPGQGLEWMGAVYPGNGDTSYNQKFKGRATLTADKSTSTAYMELSSLRSEDTAVYYCARGSYYYTSSYFDHWGQGTLVTVSS VL: EIVMTQSPATLSVSPGERATLSCKASQSVDFDGDSYMNWYQQKPGQPPRLLIYTASNLESGIPARFSGSGSGTEFTLTISSLQSEDFAVYYCQQSYEDPFTFGQGTKLEIK
 |  |  |  |  |  |  | no binding | 0.253 | 0.454 | 2.56 | 0.0127 | 0.0033 | 0.308 |  | hum_LT-m85-4 (antibody, human IgG4, V domains shown, humanized from LT-m85) VH: QVQLVQSGAEVKKPGASVKVSCKASGYTFTSYNVHWVRQAPGQGLEWIGAVYPGNGDTSYNQKFKGRATLTADKSTSTAYMELSSLRSEDTAVYYCARGSYYYTSSYFDHWGQGTLVTVSS VL: EIVMTQSPATLSVSPGERATLSCKASQSVDFDGDSYMNWYQQKPGQAPRLLIYTASNLESGIPARFSGSGSGTEFTLTISSLQSEDFAVYYCQQSYEDPFTFGQGTKLEIK
